Experimental findings from publication PMC5989791 are described below.

For the experiment, the target named is amatuximab, chimerized monoclonal IgG1 antibody targeting mesothelin (unlabelled) (human). As to the kind of experiment: ELISA.

“CA125 tumor-shed antigen, soluble (sCA125), patient-derived (from UniProt Q8WXI7 1-14507) (natural protein)”: the percent decrease of CD16a binding to amatuximab was 50% and the percent reduction of amatuximab binding to CD32a is 29%.
